Test results: WO1999010379A1 (dated 1999)
Values belong to the binder of their own block, whether it stands above or below them.

Experiments:
[1] = target: T1, monoclonal antibody SM3 (secreted by the hybridoma HSM3, ECACC accession no. 87010701); experiment: inhibition ELISA of SM3 (1 ug/ml) binding to the fusion protein with seven MUC1 tandem repeats
T1 construct: The general ELISA method detects it with goat anti-mouse (Fc specific) conjugate; also called SM3 antibody

[2] = target: T1, monoclonal antibody SM3 (secreted by …); experiment: inhibition ELISA: SM3 at 1 ug/ml incubated with increasing peptide, binding to the fusion protein with seven MUC1 tandem repeats

T1 sequence (VH, as listed by the source limits assumed, chain 1 of 2): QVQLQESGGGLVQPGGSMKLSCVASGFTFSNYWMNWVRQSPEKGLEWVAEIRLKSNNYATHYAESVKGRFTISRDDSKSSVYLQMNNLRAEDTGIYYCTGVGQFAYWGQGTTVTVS
T1 sequence (VL, as listed by the source limits assumed, chain 2 of 2): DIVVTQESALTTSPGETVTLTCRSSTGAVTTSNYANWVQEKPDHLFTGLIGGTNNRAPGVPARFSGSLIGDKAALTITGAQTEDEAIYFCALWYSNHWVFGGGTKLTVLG

B1: control peptide of the same composition but different sequence (Ala-Arg-Pro-Thr-Gly-Thr-Ser-Asp-Pro-Thr-Pro-Ala-Ser) (peptide)
peptide: ARPTGTSDPTPAS
binding result [1]: no binding (tested: approximately 30μg/ml)

Apparent Ka [2]: ~24 µM
IC50 [2]: ~30 µg/mL
B2: MUC1 peptide Thr-Ser-Ala-Pro-Asp-Thr-Arg-Pro-Ala-Pro-Gly-Ser-Thr ("the crystal peptide") (peptide)
peptide: TSAPDTRPAPGST
notes: Non-glycosylated peptide; also called MUCl peptide; MUCl peptide antigen
